Experimental data as given in the supplement of paper PMC7125110.
± gives the standard error. Variants at the floor of the assay were thinned out.

B1: glmS ribozyme (parent)
chain: AUAAAAGCGCCAGAACUACAGAAAUGUAGUUGACGAGGAGGAGGUUUAUCGAAUUUUCGGCGGAUGCCUCCAAA

Assays:
Conditions in all cases: with glucosamine-6-phosphate
glucosamine-6-phosphate [1] = variants of: B1; test: self-cleavage kobs at 40 uM GlcN6P; higher = faster cleavage; RNA array
In short: (§1)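 The measurements used barcoded ribozyme variants on sequenced MiSeq chips, transcribed in situ by E. coli RNA polymerase and tracked at 37 °C with a hybridised Cy3 probe. Glucosamine-6-phosphate, 40 μM to 10 mM in HEPES/KCl/Mg(OAc)2 buffer, was flowed in while tiles were imaged over ~14 h. Baseline-normalised signals, also normalised to non-cleaving reference variants, gave per-tile medians that were fit to one- or two-exponential decays for kobs. kcat and KM resulted from weighted Michaelis–Menten fits across concentrations.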

glucosamine-6-phosphate [2] = variants of: B1; test: self-cleavage kobs at 160 uM GlcN6P; higher = faster cleavage; RNA array
In short: as §1

glucosamine-6-phosphate [3] = variants of: B1; test: self-cleavage kobs at 10000 uM GlcN6P; higher = faster cleavage; RNA array
In short: as §1

glucosamine-6-phosphate [4] = variants of: B1; test: self-cleavage kobs at 640 uM GlcN6P; higher = faster cleavage; RNA array
In short: as §1

glucosamine-6-phosphate [5] = variants of: B1; test: self-cleavage kobs at 2500 uM GlcN6P; higher = faster cleavage; RNA array
In short: as §1

A42C G51A C61U
self-cleavage kobs at 40 uM GlcN6P (glucosamine-6-phosphate [1]): < 1e-05 s⁻¹
self-cleavage kobs at 160 uM GlcN6P (glucosamine-6-phosphate [2]): < 1e-05 s⁻¹
self-cleavage kobs at 10000 uM GlcN6P (glucosamine-6-phosphate [3]): < 1e-05 s⁻¹

C34U G51U
self-cleavage kobs at 40 uM GlcN6P (glucosamine-6-phosphate [1]): < 1e-05 s⁻¹
self-cleavage kobs at 160 uM GlcN6P (glucosamine-6-phosphate [2]): < 1e-05 s⁻¹
self-cleavage kobs at 640 uM GlcN6P (glucosamine-6-phosphate [4]): < 1e-05 s⁻¹

G32A C50A U55G C71G
self-cleavage kobs at 40 uM GlcN6P (glucosamine-6-phosphate [1]): < 1e-05 s⁻¹

G38A G40A
self-cleavage kobs at 40 uM GlcN6P (glucosamine-6-phosphate [1]): < 1e-05 s⁻¹
self-cleavage kobs at 160 uM GlcN6P (glucosamine-6-phosphate [2]): < 1e-05 s⁻¹
self-cleavage kobs at 640 uM GlcN6P (glucosamine-6-phosphate [4]): < 1e-05 s⁻¹
self-cleavage kobs at 2500 uM GlcN6P (glucosamine-6-phosphate [5]): < 1e-05 s⁻¹
self-cleavage kobs at 10000 uM GlcN6P (glucosamine-6-phosphate [3]): < 1e-05 s⁻¹

U30C G37C C58A G60U
self-cleavage kobs at 40 uM GlcN6P (glucosamine-6-phosphate [1]): < 1e-05 s⁻¹
self-cleavage kobs at 10000 uM GlcN6P (glucosamine-6-phosphate [3]): < 1e-05 s⁻¹

G13U G41U U46G
self-cleavage kobs at 40 uM GlcN6P (glucosamine-6-phosphate [1]): < 1e-05 s⁻¹

A15U G29C A39G
self-cleavage kobs at 40 uM GlcN6P (glucosamine-6-phosphate [1]): 6.29e-05 ± 1.7e-05 s⁻¹
self-cleavage kobs at 10000 uM GlcN6P (glucosamine-6-phosphate [3]): 0.00376 ± 0.0005 s⁻¹

G7U U31A
self-cleavage kobs at 40 uM GlcN6P (glucosamine-6-phosphate [1]): < 1e-05 s⁻¹
self-cleavage kobs at 160 uM GlcN6P (glucosamine-6-phosphate [2]): < 1e-05 s⁻¹
self-cleavage kobs at 640 uM GlcN6P (glucosamine-6-phosphate [4]): < 1e-05 s⁻¹
self-cleavage kobs at 2500 uM GlcN6P (glucosamine-6-phosphate [5]): < 1e-05 s⁻¹
self-cleavage kobs at 10000 uM GlcN6P (glucosamine-6-phosphate [3]): < 1e-05 s⁻¹

C10U C58G
self-cleavage kobs at 40 uM GlcN6P (glucosamine-6-phosphate [1]): < 1e-05 s⁻¹
self-cleavage kobs at 160 uM GlcN6P (glucosamine-6-phosphate [2]): < 1e-05 s⁻¹
self-cleavage kobs at 2500 uM GlcN6P (glucosamine-6-phosphate [5]): < 1e-05 s⁻¹
self-cleavage kobs at 10000 uM GlcN6P (glucosamine-6-phosphate [3]): < 1e-05 s⁻¹

C8U G35A G59U
self-cleavage kobs at 40 uM GlcN6P (glucosamine-6-phosphate [1]): < 1e-05 s⁻¹

G7C A48U
self-cleavage kobs at 40 uM GlcN6P (glucosamine-6-phosphate [1]): < 1e-05 s⁻¹
self-cleavage kobs at 160 uM GlcN6P (glucosamine-6-phosphate [2]): < 1e-05 s⁻¹
self-cleavage kobs at 2500 uM GlcN6P (glucosamine-6-phosphate [5]): < 1e-05 s⁻¹
self-cleavage kobs at 10000 uM GlcN6P (glucosamine-6-phosphate [3]): < 1e-05 s⁻¹

G38A U46C A53C U54C C68A
self-cleavage kobs at 40 uM GlcN6P (glucosamine-6-phosphate [1]): < 1e-05 s⁻¹
self-cleavage kobs at 10000 uM GlcN6P (glucosamine-6-phosphate [3]): < 1e-05 s⁻¹

C10G U31C
self-cleavage kobs at 40 uM GlcN6P (glucosamine-6-phosphate [1]): < 1e-05 s⁻¹
self-cleavage kobs at 160 uM GlcN6P (glucosamine-6-phosphate [2]): < 1e-05 s⁻¹
self-cleavage kobs at 10000 uM GlcN6P (glucosamine-6-phosphate [3]): < 1e-05 s⁻¹

U57A G63U C70G
self-cleavage kobs at 40 uM GlcN6P (glucosamine-6-phosphate [1]): < 1e-05 s⁻¹

U57C G62U U65C
self-cleavage kobs at 40 uM GlcN6P (glucosamine-6-phosphate [1]): < 1e-05 s⁻¹
self-cleavage kobs at 10000 uM GlcN6P (glucosamine-6-phosphate [3]): < 1e-05 s⁻¹

G40A U47C G62A A64C C70U
self-cleavage kobs at 40 uM GlcN6P (glucosamine-6-phosphate [1]): < 1e-05 s⁻¹
self-cleavage kobs at 2500 uM GlcN6P (glucosamine-6-phosphate [5]): < 1e-05 s⁻¹
self-cleavage kobs at 10000 uM GlcN6P (glucosamine-6-phosphate [3]): < 1e-05 s⁻¹

G37A C50A G59A G66A
self-cleavage kobs at 40 uM GlcN6P (glucosamine-6-phosphate [1]): < 1e-05 s⁻¹

C16A A33U G38C
self-cleavage kobs at 40 uM GlcN6P (glucosamine-6-phosphate [1]): < 1e-05 s⁻¹
self-cleavage kobs at 2500 uM GlcN6P (glucosamine-6-phosphate [5]): < 1e-05 s⁻¹

G35C G66A
self-cleavage kobs at 40 uM GlcN6P (glucosamine-6-phosphate [1]): < 1e-05 s⁻¹
self-cleavage kobs at 2500 uM GlcN6P (glucosamine-6-phosphate [5]): < 1e-05 s⁻¹
self-cleavage kobs at 10000 uM GlcN6P (glucosamine-6-phosphate [3]): < 1e-05 s⁻¹

G9C C58G C68A
self-cleavage kobs at 40 uM GlcN6P (glucosamine-6-phosphate [1]): < 1e-05 s⁻¹

C58G G62U C68A
self-cleavage kobs at 40 uM GlcN6P (glucosamine-6-phosphate [1]): 4.88e-05 ± 1.8e-05 s⁻¹

C11A A33U U45A
self-cleavage kobs at 40 uM GlcN6P (glucosamine-6-phosphate [1]): < 1e-05 s⁻¹
self-cleavage kobs at 640 uM GlcN6P (glucosamine-6-phosphate [4]): < 1e-05 s⁻¹
self-cleavage kobs at 2500 uM GlcN6P (glucosamine-6-phosphate [5]): < 1e-05 s⁻¹

G41U G60U A64U
self-cleavage kobs at 40 uM GlcN6P (glucosamine-6-phosphate [1]): < 1e-05 s⁻¹
self-cleavage kobs at 160 uM GlcN6P (glucosamine-6-phosphate [2]): < 1e-05 s⁻¹
self-cleavage kobs at 10000 uM GlcN6P (glucosamine-6-phosphate [3]): < 1e-05 s⁻¹

G35C C67A
self-cleavage kobs at 40 uM GlcN6P (glucosamine-6-phosphate [1]): < 1e-05 s⁻¹
self-cleavage kobs at 160 uM GlcN6P (glucosamine-6-phosphate [2]): < 1e-05 s⁻¹
self-cleavage kobs at 640 uM GlcN6P (glucosamine-6-phosphate [4]): < 1e-05 s⁻¹
self-cleavage kobs at 10000 uM GlcN6P (glucosamine-6-phosphate [3]): < 1e-05 s⁻¹

U47G G66A C70U
self-cleavage kobs at 40 uM GlcN6P (glucosamine-6-phosphate [1]): 0.000121 ± 3e-05 s⁻¹
self-cleavage kobs at 10000 uM GlcN6P (glucosamine-6-phosphate [3]): 0.00591 ± 0.0017 s⁻¹

G40A G41C C61G
self-cleavage kobs at 40 uM GlcN6P (glucosamine-6-phosphate [1]): < 1e-05 s⁻¹
self-cleavage kobs at 640 uM GlcN6P (glucosamine-6-phosphate [4]): < 1e-05 s⁻¹
self-cleavage kobs at 2500 uM GlcN6P (glucosamine-6-phosphate [5]): < 1e-05 s⁻¹
